The results in this text go back to the DeepSol protein solubility set.

This data set is described as follows: soluble on expression in E. coli; label from the status in PepcDB or PDB records.
“GSDLPIDPNEPTYCLCNQVSYGEMIGCDNDECPIEWFHFSCVGLNHKPKGKWYCPKCRGENE”: the “soluble on expression in E. coli” value was “soluble”.

For the sequence “MSRGSSAGFDRHITIFSPEGRVYQVEYAFKAINSTNLTAVAVKGADAAVIAVQKRVPDSLIVADTVTSVYQISQSVGCCAIGMIPDAKFQIKRAQGEAASWKYKNGYDMPCELLAKKMADLNQYYTQNAEMRSLGCALLFISYDDEKGPEVYRVDPAGYYRGMKGVSVGVKQLPATSFLEKKIKKKSELTSTEAIELAIEALQTSLGIDVRSKDLEVVVVTKDNSKFTKLTSDQVEHHLNQIANRD”, the “soluble on expression in E. coli” value was “not soluble”.

Turning to “LKIKMPDDIFVKKELILKDVIKGQIGYMYLPSMSSKNGSINNDLKIIGDYINTLEKHKALIIDIRGNLGGSDRYWQGIVSKLIKNDVKINGYRIYRNNNEIVKKYTNARNIKLNPVENLPASVKENAPKEIIKDFNDFEDTSYTIKSTDDSKFKGNIYLLVDRKIYSSSESFAMFCKENKFATLVGETTGGDGGCIDPVLFNLKNSGLIVRMASCMYLNKNGICDEEFKTIPEFKVKDCKRTADFKDDNCIRKALELENINY”, the “soluble on expression in E. coli” value is listed as “not soluble”.

Turning to “PDEKIVRIHSSSGTTGSPVIIPYTQKDVDVWSEMMMRCYQMAGVTNNDRVHITPGYGLWTAGIGFQLGAERLGAMAIPMGPGNTEKQLQMMVDLKSTVLTSTSSYALLLAEEIRKKGIQDKIHLKIGVIGSERWSEKMRNRIESELGIKSFDIYGLTEIYGPGIALDCEYHEGMHYW”, the “soluble on expression in E. coli” value is recorded as “not soluble”.

In the case of “MVRTAPDPAMVQRSHQKPSLVMTTHSMLIPMVDTLLELPARTLTDGTSTPKHQQLREILEELCRTQLKPGDMLPGERALEEQYGVSRITVRRAIGDLVATGQLRRSRGKGTFVAQAPMITRLQLASFSDEMAARKIEASSKILASSWSSPSAVVHEFFGTEQGTPHTHLVRVRLGGGKPFCINDAWYNSAIAPDLLENDVYKSVYSILEQNYGASITGAEQITTAVAATPETARILGVDVGEPLLKVERHAHAGENPIEWCSSLYRTDRFALRTFITK”, the “soluble on expression in E. coli” value was “not soluble”.

Take “GPLETDLVAVWDVALSDGVHKIEFEHGTTSGKRVVYVDGKEEIRKEWMFKLVGKETFYVGAAKTKATINIDAISGFAYEYTLEINGKSLKKYMEDRSKTTNTWVLHMDGENFRIVLEKDAMDVWCNGKKLETAGEFVDDGTETHFSIGNHDCYIKAVSSGKRKEGIIHTLIVDNREIPEIAS”: the “soluble on expression in E. coli” value is given as “soluble”.

“YDRRVHRFRKNWERIIPTHSKIQYAGNMGLLSFGTGWDYGKRNQWETDLLLGFIPKYSSKKAKVTMTLKQNYMPWSINLGKGFSTEPLSCGLYLNTVFGNQFWVSEPERYPKGYYGFSSKVRIHVFMGQRLTYDIDPNRRFLAKSVTFFYEISTCDLYLISGVTNSYLRPRDYLSLSFGLKFQWL”: the “soluble on expression in E. coli” value was “not soluble”.

With “MFSDELEKISWEETTKAIYSKTDADVRRALSKEHCDVNDFMALISPAAAPYLETMARLSRKYTMERFGKTISMFVPLYITNSCTNSCVYCGFNHNNPMKRTILTEEEMVNEYKAIKKLAPFENLLLVTGENPAKAGVDYIERALLLAKPYFANLQIEVMPLKAEEYERLTHAGLNGVICFQETYNKANYNIYHPRGMKSKFEWRVNGFDRMGQAGVHKIGMGVLIGLEEWRTDITMMAYHLRYLQKHYWKTKYSVNFPRMRPSENGGFQPNVVMNDRELAQVTFAMRIFDHDVDISYSTRESAAFRNHMATLGVTTMSAESKTEPGGYFTYPQALEQFHVSDERKAVEVDAALRSLGRIPVYKDWDTALTLPQC”, the “soluble on expression in E. coli” value was “soluble”.

Consider “MSLAFVPHVPRHSRGDNPPSASTASPAVLTLTGERTIPDLDIENYWFRRHQVVYQRLAPRCTARDVLEAGCGEGYGADLIACVARQVIAVDYDETAVAHVRSRYPRVEVMQANLAELPLPDASVDVVVNFQVIEHLWDQARFVRECARVLRGSGLLMVSTPNRITFSPGRDTPINPFHTRELNADELTSLLIDAGFVDVAMCGLFHGPRLRDMDARHGGSIIDAQIMRAVAGEGHHHHHH”, for which the “soluble on expression in E. coli” value is listed as “not soluble”.

In the case of “MGSDKIHHHHHHADTASFLFDKYEDAQVLLRAGGELKSKMNYSIVVNKFYFIDPQDKQVKELANPGDILLIKIAGRTFYPESNGAGIEMLPTKPVVYVQYKATARKEAPMGAYGTRSETTAVQSYGTITSNGQSYKLEGEKIIVSNRHHVYWVEKDDKMKQFRNFKQLAKIYSKHRAEVEKYIEDNKVNFEDVDQIVKLCAYADSLK”, the “soluble on expression in E. coli” value is “not soluble”.

As for “AEPQPPSGGLTDEAALSCCSDADPSTKDFLLQETMLRVKDPKKSLDFYTRVLGMTLIQKCDFPIMKFSLYFLAYEDKNDIPKEKDEKIAWALSRKATLELTHNWGTEDDETQSYHNGNSDPRGFGHIGIAVPDVYSACKRFEELGVKFVKKPDDGKMKGLAFIQDPDGYWIQILNPNKMATLM”, the “soluble on expression in E. coli” value is listed as “soluble”.

As to “MASDPITTQEFSPRQNAVLDQALRLLVEGGEKALTTSGLARAANCSKESLYKWFGDRDGLLAAMITFQQSKVRTFEKAGDRVSAPQLADHLEVFAHDLLDVLAGDVSLALNRLAIGQASRDGSKLGDLLLERGRRQIDRRARGLIEAGRRSGYLRFDDAEEAYRSFYGLIVSDLHVRMLLGEAPDKDFSARAKKAVVAFLTLYGTEKVHSELGGKVA”, the “soluble on expression in E. coli” value was “soluble”.

For the sequence “SEWLKSTDYGKYEGLTKNYMDYLSRLYEREIKDFFEVAKIKMTGTTKESKKFGLHGSSGKLTGSTSSLNKLSVQSSGNRRSQSSSLLDMGNMSASDLDVADRTKFDKIFEQVLSELEPLCLAEQDFISKFFKLQQHQSMPGTMAEAEDLDGGTLSRQHNCGTPLPVSSEKDMIRQMMIKIFRCIEPELNNLIALGDKIDSFNSLYMLVKMSHHVWTAQNVDPASFLSTTLGNVLVTVKRNFDKCISNQIRQMEEVKISKKSKVGILPFVAEFEEFAGLAESIFKNAERRGDLDKAYTKLIRGVFVNVEKVANESQKTPRDVVMMENFHHIFATLSRLKISCLEAEKKEAKQKYTDHLQSYVIYSLGQPLEKLNHFFEGVEARVAQGIREEEVSYQLAFNKQELRKVIKEYPGKEVKKGLDNLYKKVDKHLCEEENLLQVVWHSMQDEFIRQYKHFEGLIARCYPGSGVTMEFTIQDILDYCSSIAQSH”, the “soluble on expression in E. coli” value is on record as “soluble”.

On to “QKDFSWNASLLYAFNRNKVKHISVQPSLWDSRISMPTSYPMVGKPLYGIYAYKWAGLNENGDPQVYDAENNVTSGPARDYHALVYCGTTVPIHNASLTNVLRYKGFEFSAMLILDAGHKLRSSNIPSINMSNGRITSTAKGIVDRWTQPGDVTDVPRLLFSNDTENFNTHRTELYRYSDLFVYDASNIRLSNISLAYRVPAHWCKKISLSGARLQFNVENVATFAFDSKANYDLGGKVKPNYVWGLYLNF”, for which the “soluble on expression in E. coli” value is on record as “not soluble”.

“MSLNHVRPWRNIHRRKSRQIMVGNVPVGGDAPISVQTMTNTITADAPATIAQVLRAAEAGADIVRVSVPDEASTRALKEIVAASPVPIVADIHFHYKRAIEAAEAGAACLRINPGNIGDASRVREVIKAARDHGCSMRIGVNAGSLEKHLLDKYGEPCPEAMVESGLDHIKILQDNDFHEFKISVKASDVFLAAAAYQALADATDAPIHLGITEAGGLTAGTVKSAVGLGNLLWSGIGDTLRVSLSADPVEEVKVGYEILKSLGLRHRGVTIISCPSCARQGFDVIKTVAELEDRLAHVTTSMSLSIIGCVVNGPGEALMTDIGFTGGGNGSGMVYLAGKQAHKLGSERMIDEIVSMVESRAAEIEAEKLAAAEAAE”: the “soluble on expression in E. coli” value is on record as “not soluble”.

For “AAEVGDDFLGDFVVGERVWVNGVKPGVVQYLGETQFAPGQWAGVVLDDPVGKNDGAVGGVRYFECPALQGIFTRPSKLTRQP”, the “soluble on expression in E. coli” value is given as “soluble”.

As to “GSHMGQNDLVKTLRMNYLFDFYQSLLTNKQRNYLELFYLEDYSLSEIADTFNVSRQAVYDNIRRTGDLVEDYEKKLELYQKFEQRREIYDEMKQHLSNPEQIQRYIQQLEDLE”, the “soluble on expression in E. coli” value is given as “soluble”.
